The values below come from a protein production outcome set (Wang et al. 2014).

The data set is described as follows: label from the status in PepcDB records.

Regarding “MTEILPHVNDEVLPAEYELNQPEPEHCPGPESDMAGKSDACGGCANKEICESLPKGPDPDIPLITDNLSGIEHKILVLSGKGGVGKSTFAAMLSWALSADEDLQVGAMDLDICGPSLPHMLGCIKETVHESNSGWTPVYVTDNLATMSIQYMLPEDDSAIIWRGSKKNLLIKKFLKDVDWDKLDYLVIDTPPGTSDEHISINKYMRESGIDGALVVTTPQEVALLDVRKEIDFCKKAGINILGLVENMSGFVCPNCKGESQIFKATTGGGEALCKELGIKFLGSVPLDPRIGKSCDMGESFLDNYPDSPASSAVLNVVEALRDAVGDV”, the protein production result is “failed”.
Next, “MTEIQRLLSETIDDLNIREKRDNRPRFSISFIRKHPGLFIAMYAAWFATLAVMLQSETLVGSVWLLVVLFIAFNGFFFFDIAPRYHYNDIDVLDLRVCYNGEWYNTRFVPPTLIETILQSPQVDNEHKVQLQKMVARKGELSFYDIFTLARAEASR”: “failed”; “MTEISYEAIAFEQSGPITRITLNRPDAANGMNDTMTRELADAARRADTSGAKVVVLTGSGRFFSAGGDLKAFSTAPSRGAFIKGVADDLHRAISSFARMDAVLITAVNGTAAGAGFSIAVTGDLVLAAESASFTMAYTKVGLSPDGSASYYLPRLVGMRRAQELMLTNRTLSATEAYEWGLVTEVVPDADLADRATKLAEQVAAGSAGSNGAVKSLLLSSLKNSLEEQMEAEGRFIAARADSADGREGVDAFLGKRRPEFA”: “failed”.
The result for “MTEKKIDFKKEEKKFYAPKRKPERIFVPEMNFLMVDGKGDPDGEEYQKAVQSLYAIAYTIKMSKMGETRLDGYSDFVVPPLEGFWWSEGKFDLKDRDAWLWTSILRQPDFVTEEVLEWAKEVARKKKPDVDTSRVKLVRFEEGECVQMMHVGPFSEEVHTVAEMHQFMETEGLRNDTGAIRKHHEIYLSDPRKANPEKMKTILRLPVS” reads “not failed”; that for “MTEKLIEQLEARINDLECQVAFQEQTIEDLNSALSQQQLQITKMQDQMKYVVGKVKNMDSSNMEDPANEPPPPHY”, “failed”; that for “MTEKNTLKKSATLAAAGLVVAGALLAGCGESKATPMDDAYAGNSGETEKSQEEQSQSQSNGSDSSDGSDSGSSHNDPSTTTSDKKDTGNYKDGNYSINGQYGPVGEDSIDVHLTIKDGNVETVKIIGHPFTTISKNHQDDFAKAINGVVDGKPLKGLKVDKVAGASWTSDAFNKALEVARQEASIQE”, “failed”.
For the sequence “MTEKSQEPTAALDAEQVAAYLSQHPEFFVEHDELIPELRIPHQPGDAVSLVERQVRLLRERNIEMRHRLSQLMDVARENDRLFDKTRRLVLDLLDATSLEDVVSTVEDSLRHEFQVPYVSLILFSDSSVSVGRSVSSAEAHQAIGGLLSGGKTVCGVLRPHELAFLFGESDRDEIGSAAVVSLSFQGLHGVLAIGSPDPQHYKSSLGTLFLGYVAEVLARVLPRFSSPLRSVR”, the protein production result is “not failed”.
The result for “MTELTILLGLAAAGYGVSHWTQLPAIPFLLMGGLALNATGAVGDAGFVEDVLFLSVSILLFVAGTDLSLTRVGPFKKTAFVIGVAQFAGLAAAALGIAYGLDYALTDALYLGLALAASSTIVGVRLLQRRQQMFEPYGRTVLGALLLQDVIVVLLLPLLVRLPDGSAAVLGSLGGTIVLLVGVGVVMKGVVPLLLKRELDAETQLLAVLGVLFGFMGAAAWLDVPLFAAAFLAGVSLSGFPFSGIVHSEMQPLYDFFSALFFASLGVAAPQPAPVLFGHAALFAGAVLVLTPLIVAVVGAWAGLVAQSALESGLLLAQTSELSLVVGLQALVAGQIGGEVFSVIVLTTVFTMMLTPLLTSETVVWELVRWHPSRQSDVLSEVPSNHVLVVGGGRSARPLLRLLRESKYEAVVVDEDPTVVDRLRDQGVRCVRGDGSDRAVLLKAGGAQARIVVSLLRNPKAVESLLDYVGDTVPILVRVFEDHEAEWVEARGGTPIRFAHAASDAFMEWFRRAQSARSKQPPSGT” reads “failed”; that for “MTENIPKSVAAMIRQPRKISPFWLLPIVAFIIGALLFFQILKEQGETIKIRFNAGDGIVAGKTIVRYQGLQIGQVKKVYFVDDLKKVEVQAQINSEAKSVLREGTTFWLVKPSASIAGVSGLDALVSGNYITLAPGNGAITNHFVAQDEQPAATVTDGDLLVHLIASDLGSITIGASVYFRKVPVGNIANYRFTEDKQKVEIDVVINKKYAHLVKQNSRFWNISGLNANISFSGLAVNVDSLASVIQGAVSFDSPEDSTLAEQASRFDLYADLKSAQRGVDVNITVPAMTSLKVNETPVFYQNTQVGVLSFIEAMPIDNKEIERVEENAMLRGRLLIDPNYTHLFREQSTILLKEPKFNLNAEQLTNIGQLLRGVYFEVKAGNGLAKRTFTVEKESDYLLSRPDMLALTFFAPKAYGVEEGQGIYYNDVKIGELLKRTLSVDGVTLQGIIFPAYRYLVGENSKFMAIAHLDVAVGLDGLRVKAGSPSHWLQGGIRLLEGKVQGVAKKQYPLYKDIDNAQAGILSDIKQPTLTLSASELEGIDKGAVVLYRNYQIGEVLNVKPQSQKFDVEVYIEPAYRQLIGNKSRFWVESAIEAELSAKGLSIQSAPLMRTLRGAISIDNGGDKMDRTLYANRIKATANKTRISLIAKDASKLFKGMAIKYMGLTIGQIETLALQNAKKQIKLTAYIEAPYYSIIAKEGSCFTAISPEVTPSGVKNIDAVLQNYIDVEAGNGGLATEFNLIDTDTNKTTYANNFPIIVETSDARGIEVNAPVLYRGLQVGIVQRLQLSELADRIQIHLAIEKQYQHLIRNNTQFWAASGYTMDISLQGVSLNSGTMAQLLKGGIEFLTPSTRVVEPQAKPNRRFLLQRKIPAKALSWDQAIAE”, “failed”.
The result for “MTENPEEDNKVFNYWWLAHLVEVRLDAYLRTKKQADLEVAEKTYLHNKNRNGGTLIHDFYDDMLWNALAAYRLYKATGKSIYLEDAQLVWQDLVDTGWNDIMGGGFAWRRPQMYYKNTPVNAPFIILSCWLYNELNETKYLEWAMKTYEWQTKVLVREDGFVEDGINRLEDGTIDYEWKFTYNQGVYIGANLELYRITKEAKYLDTANKTAAISLKELTEDGIFKDEGNGGDEGLFKGIFYRYFTDLIEETANKTYRDFVLNSCQILVENAKLDGYLLMGMNWKEKPSGKIPYSAELSGMIALEMAAKLELEHHHHHH” reads “not failed”; that for “MTEPCYVMVDQRFDEFVDTARAPEQIVHGFAWTEGPVWLDGAPFFNDIANKRMMRWTKQACAEVALDNSEFANGNTLDGAGQVVSGEHAGRRVIRRPDPTDPSAVEVIAERSEGKRLNSPNEVVVRSDGSVWFTNPPYGINSDIEGYPAESEIGGCFVFCPDPDGTLHAVATEFDKPNELAFSPDECRLFVADSGAIRGAIFPGIDDDLPHHVRVFDVDGVTLSNGRVFAVVAPGAPDGFRVDHEGYVWTSALDGIHCLSPEGALIGKIWLPRQTSIICFGGPPGQTMFITSSDKVYRVESTRRDAAHALRDRERNAE”, “failed”.
The result for “MTEPNNPHRPDEAGVSGWPSEAGRDPYGQPSNPYQMPAPYSSGLPVAENHRRPYVDFGLAIKLFFKNYAVFRGRASRSEYWWTVLFNFIIAVAIQALMPILQGVGLMSAITSNSTTEFSAMSTSGVIFTMLPLAWLLAIIIPCLALTVRRLHDVNHSGWWVMAPTLCGIVSAIMMILAFVSAAANDGKPSMALLTIGIVLFVAIFVVNIILLIFVISDSHPEAWKKYDKEPLPVTE” reads “failed”; that for “MTEPPPTPDRHPDAVESAAPGGYLEPVRAAGTVLWRDTGRGREIALVHRPRYNDWTLPKGKLDEGEHVLVAAVRETVEETGVTPRLGRRLATQRYWKSGWPKQVDWWAATPAPGTTAQFTPTAEVDAVEWLPAAEARARLTYPSDVRVLDDFLHGPAQTVPLVLLRHASAGNKNEWHDYDLLRPLDEAGRAHARAVADILAVFGPLRVVSSTAARCLETVVPYAAAHGVEIRTEHTFTVGVLRSGAQAYDPQAARQTMRALVEERQPTLVCTHGELVADLMAEAAAQTGAPARSRWALRKGAFWVVHRDAKDGSLVAVEHHGLPG”, “failed”; that for “MTEPTHKKQFSLRTAVMLPFIAVLLVTLSIVFYTQNNSYEKLVGDVSEKVLASYTQNTHADLNIFLNAPNFAVKSMVNQIQRYQMYHPNDTKQLQQFLKDSLEGIYTGLEQMDVLSFGGEKKEYIGFRREPNASLSLMLQDKRTNDDLIIYRGSEMSDNIRTVIANYDPRSRPWYKPAATTFKPSWSKIYTNADEKKEITISTMHPVFYDEDFIGVFAADVKLDSFNKFLSQETKHTKGVIYLIDDQQRLIAHSSVGSVLSIGTQNSPVGSRLFAVESCDETIQQSATYIKNNQLINNKNNDAEVFSFYYKGERYFSQITPYIDGNNLNWYIVISISESDLLGHLQEEQRRGLFFGIVLAAIGLIVGVYLVTQVTKPIFTTANAARNIASGNWNNNVEAQGSIYETTLLMNAFNDMTNKLQSSFDAMRQQITFDSLTQVLSRQGLIEQCRIMLDKKEHYEQGLLVIGINNFRDINDSFGILEGDQLLKNISDRLQCSFAHDNIAIARVGGDEFALFFSKLDDVEQLKQYARDMEGCFMTPFRVASNNSLLSISTGLVYGDLSCDSMTLWLRNASIALGQAKKNNLNMSLYTPEMAEASLHKANMTAELSLAIKNKELVPFYQPIIDIKSGKTIGAEALIRWLSPQRGMVSPLDFIPLAEENGMIIPMGSQVLTQACLDTVERIDQGLWPADFHMHVNLSVCQLTQNNFLDELKAVLHNTSMAPENLTLEITESRLVNHDNSTINTMQKIRDLGVQIAIDDFGTGYSSLAYIHKLPFDVLKVDRSFIKDLTAENIDSSIAAAVCNMTQGFDITLVAEGIETQEQAKLLASLNYHHAQGFLYSRPIPLEDWPTE”, “failed”.
With “MTERPSLSPREARDRYLAHRQTDAADASIKSFRYRLKHFVEWAEERDITAMRELTGWKLDEYETFRRGSDVSPATLNGEMQTLKNWLEYLARIDVVDEDLPEKVHVPTIPDGEESNDEMLEPEAAKKLLRAMRSDPTHYGTVKHALLELLWFTGCRVGAARSLDLRDYHSGERFVTFHHREGTPLKNDSDGERAVGLPEAVCEVLDYYIEHHRESSHDDHGRKPLFTTTQGRASENTARVWTYLATQPCLHGPCPHGKERETCSYLHIHSASKCPSSLSPHRIRTGSITWQRDCGLPAEVVSERVNATLEVIEKHYDQATKRQRLEERRRPYINNLELDLEADS”, the protein production entry was “failed”.
Turning to “MTESATASRSWHLQATIRRLVLTAFVAGQTGLASWFLLQVLPYHGGNVVEWLIVAVFAVLYLWIAFGFWIAVYGFLLRLLGGDRASLLKRHTPNELAATPLSKTAIVMPLYHEPVSWTLKGLKAIYLDLARSGRLDDFDFYILSDSQDPDVWLQEQQVWLKLVEELGAHGRLFYRRRRVNLNYKSGNVADFLRRWGSQYQYMVVLDADSLLAGDTIRTMVQVMNREPQVGILQTAPTIINARSAFARIQQFANRLYSPLFATGLAAIQMGDAAFWGHNAVIRVAPFMAHCGLPKLKGAGIWQGPIMSHDFVEAAFLGRAGYEVWLEPALGASYEESPPTLDDELARDQRWSKGNLQHAALMLFSPRLRLAHRFAFLNGIMAYASSPLWLLFLVLTTIAAVQLTIAPIDYFPDGRESPFPLWPEWRPTWAITLVVSTMALLFLPKFLAIVDVVAHRTLSGFGGFFRLLCSVLLEIVVSVLLAPIRMLAHSHSVVSALLNVRLSWAGQNRTEETGWREAAVRHLPGLIIGSAWSAFAWTLDPMFFLWSLPVSIPLALAAPTTVWLSRSSSGESLSRRGLLLTPEERTRMPLLDDARGFREEAESEVALTPVEQAVLIPAVNRLHRQLAGRGAKGLKKEVIEGELDACVSRGYRGIEKGRLSLLLEDPQALTALHRRAWSAPSDSFWGQRVRNLVLHAQGLQDL”, the protein production result was “failed”.
